Data reported in patent US20210238260.
Positions count from the first letter of the chain named. Names may count otherwise.

B1: FIXa-Y155F/K247N/N249S/R318Y/R403E/E410N (protein)
chain 1: YNSGKLEEFVQGNLERECMEEKCSFEEAREVFENTERTTEFWKQYVDGDQCESNPCLNGGSCKDDINSYECWCPFGFEGKNCELDVTCNIKNGRCEQFCKNSADNKVVCSCTEGYRLAENQKSCEPAVPFPCGRVSVSQTSKLTR
chain 2: VVGGEDAKPGQFPWQVVLNGKVDAFCGGSIVNEKWIVTAAHCVETGVKITVVAGEHNIEETEHTEQNRSVIRIIPHHNYNAAINKYNHDIALLELDEPLVLNSYVTPICIADKEYTNIFLKFGSGYVSGWGRVFHKGYSALVLQYLRVPLVDRATCLRSTKFTIYNNMFCAGFHEGGRDSCQGDSGGPHVTEVEGTSFLTGIISWGEECAMKGKYGIYTKVSEYVNWIKNKTKLT
B2: FIXa-R318Y/T343R/R403E/E410N (protein)
chain 1: B1 chain 1
chain 2: B1 chain 2 with N67K, S69N, T163R
B3: FIXa variant A103N/N105S/Y155F/R318Y/R338E/R403E/E410N (protein)
chain 1: B1 chain 1 with A103N, N105S
chain 2: B1 chain 2 with N67K, S69N, R158E
B4: FIXa-Y155F/R318Y/R338E/T343R/E410N (protein)
chain 1: B1 chain 1
chain 2: B1 chain 2 with N67K, S69N, R158E, T163R, E223R
B5: FIXa-Y155F/K247N/N249S/R338E/R403E/E410N (protein)
chain 1: B1 chain 1
chain 2: B1 chain 2 with Y138R, R158E
B6: FIXa-K247N/N249S/R338E/R403E/E410N (protein)
chain 1: B1 chain 1
chain 2: B1 chain 2 with Y138R, R158E
B7: FIXa R318Y/R338E/R403E/E410N/T412A (protein)
chain 1: B1 chain 1
chain 2: B1 chain 2 with N67K, S69N, R158E, T232A
B8: FIXa K293E/R338E/R403E (protein)
chain 1: B1 chain 1
chain 2: B1 chain 2 with N67K, S69N, K113E, Y138R, R158E, N230E
B9: FIXa R318Y/R338E/E410N/T412V (protein)
chain 1: B1 chain 1
chain 2: B1 chain 2 with N67K, S69N, R158E, E223R, T232V
B10: FIXa-R318Y/R338E/T343R/R403E (protein)
chain 1: B1 chain 1
chain 2: B1 chain 2 with N67K, S69N, R158E, T163R, N230E
B11: FIXa variant A103N/N105S/R318Y/R338E/R403E/E410N (protein)
chain 1: B1 chain 1 with A103N, N105S
chain 2: B1 chain 2 with N67K, S69N, R158E
B12: FIXa variant Y155F/R318Y/R338E/R403E/E410N (protein)
chain 1: B1 chain 1
chain 2: B1 chain 2 with N67K, S69N, R158E
B13: FIXa R318Y/R338E/R403E/T412A (protein)
chain 1: B1 chain 1
chain 2: B1 chain 2 with N67K, S69N, R158E, N230E, T232A
B14: FIXa D104N/K106S/K247N/N249S/N260S (protein)
chain 1: B1 chain 1 with D104N, K106S
chain 2: B1 chain 2 with N80S, Y138R, E223R, N230E
B15: FIXa variant R318Y/R338E/R403E/E410N (protein)
chain 1: B1 chain 1
chain 2: B1 chain 2 with N67K, S69N, R158E
B16: FIXa K247N/N249S/N260S/R318Y/R338E/R403E/E410N (protein)
chain 1: B1 chain 1
chain 2: B1 chain 2 with N80S, R158E
B17: FIXa D104N/K106S/N260S/R318Y/R338E/R403E/E410N (protein)
chain 1: B1 chain 1 with D104N, K106S
chain 2: B1 chain 2 with N67K, S69N, N80S, R158E
B18: FIXa-Y155F/R318Y/R338E/T343R/R403E (protein)
chain 1: B1 chain 1
chain 2: B1 chain 2 with N67K, S69N, R158E, T163R, N230E
B19: FIXa-R338E/T343R/R403E/E410N (protein)
chain 1: B1 chain 1
chain 2: B1 chain 2 with N67K, S69N, Y138R, R158E, T163R
B20: FIXa R318Y/R338E/T412A (protein)
chain 1: B1 chain 1
chain 2: B1 chain 2 with N67K, S69N, R158E, E223R, N230E, T232A
B21: FIXa-D104N/K106S/Y155F/K247N/N249S/R318Y/R338E/R403E/E410N (protein)
chain 1: B1 chain 1 with D104N, K106S
chain 2: B1 chain 2 with R158E
B22: FIXa Y155F/R318Y/R338E/N346D/R403E/E410N (protein)
chain 1: B1 chain 1
chain 2: B1 chain 2 with N67K, S69N, R158E, N166D
B23: FIXa Y155F/K247N/N249S/N260S (protein)
chain 1: B1 chain 1
chain 2: B1 chain 2 with N80S, Y138R, E223R, N230E
B24: FIXa variant D104N/K106S/Y155F/R318Y/R338E/R403E/E410N (protein)
chain 1: B1 chain 1 with D104N, K106S
chain 2: B1 chain 2 with N67K, S69N, R158E
B25: FIXa K293A/R338A/R403A (protein)
chain 1: B1 chain 1
chain 2: B1 chain 2 with N67K, S69N, K113A, Y138R, R158A, E223A, N230E
B26: FIXa Y155F/K247N/N249S/N260S/R318Y/R338E/R403E/E410N (protein)
chain 1: B1 chain 1
chain 2: B1 chain 2 with N80S, R158E
B27: FIXa Y155F/N260S/R318Y/R338E/R403E/E410N (protein)
chain 1: B1 chain 1
chain 2: B1 chain 2 with N67K, S69N, N80S, R158E
B28: FIXa R318Y/R338E/R403E/E410N/T412V (protein)
chain 1: B1 chain 1
chain 2: B1 chain 2 with N67K, S69N, R158E, T232V
B29: FIXa Y155F/K228N/K247N/N249S/R318Y/R338E/R403E/E410N (protein)
chain 1: B1 chain 1
chain 2: B1 chain 2 with K48N, R158E
B30: FIXa R318Y/R338E/T343R/R403E/E410N (protein)
chain 1: B1 chain 1
chain 2: B1 chain 2 with N67K, S69N, R158E, T163R
B31: FIXa D104N/K106S/Y155F/K247N/N249S/N260S (protein)
chain 1: B1 chain 1 with D104N, K106S
chain 2: B1 chain 2 with N80S, Y138R, E223R, N230E
B32: FIXa N260S/R318Y/R338E/R403E/E410N (protein)
chain 1: B1 chain 1
chain 2: B1 chain 2 with N67K, S69N, N80S, R158E
B33: FIXa variant D104N/K106S/R318Y/R338E/R403E/E410N (protein)
chain 1: B1 chain 1 with D104N, K106S
chain 2: B1 chain 2 with N67K, S69N, R158E
B34: FIXa-Y155F/R318Y/T343R/R403E/E410N (protein)
chain 1: B1 chain 1
chain 2: B1 chain 2 with N67K, S69N, T163R
B35: FIXa-K247N/N249S/R318Y/R403E/E410N (protein)
chain 1: B1 chain 1
chain 2: B1 chain 2
B36: FIXa variant D203N/F205T/R318Y/E410N (protein)
chain 1: B1 chain 1
chain 2: B1 chain 2 with D23N, F25T, N67K, S69N, E223R

Factor X (FX), P00742, sequence (P00742 whole entry, looked up): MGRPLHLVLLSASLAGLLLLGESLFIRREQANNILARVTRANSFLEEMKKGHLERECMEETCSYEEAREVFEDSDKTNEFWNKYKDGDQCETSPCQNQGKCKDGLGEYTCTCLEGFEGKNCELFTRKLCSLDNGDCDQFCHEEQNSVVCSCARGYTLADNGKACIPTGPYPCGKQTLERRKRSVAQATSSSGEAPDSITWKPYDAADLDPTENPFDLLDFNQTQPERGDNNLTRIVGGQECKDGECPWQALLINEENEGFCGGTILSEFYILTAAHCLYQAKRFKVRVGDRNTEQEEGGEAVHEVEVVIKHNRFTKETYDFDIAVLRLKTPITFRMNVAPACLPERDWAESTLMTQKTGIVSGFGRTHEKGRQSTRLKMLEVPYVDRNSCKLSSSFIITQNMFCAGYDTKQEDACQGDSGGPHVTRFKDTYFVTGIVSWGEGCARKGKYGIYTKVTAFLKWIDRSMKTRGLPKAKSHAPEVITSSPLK
Factor X, P00742, sequence (P00742 whole entry, looked up): as above

Protein | % of WT kcat/KM (Factor X, P00742) | kcat (Factor X, P00742) | kcat/KM (Factor X, P00742) | % of WT kcat/KM (Factor X (FX), P00742) | kcat/KM (Factor X (FX), P00742) | KM (FX activation by FIXa in Xase complex with FVIIIa, PC/PS vesicles, Ca2+) (Factor X, P00742) | KM of FX activation by FIXa in the Xase complex (FVIIIa, PC/PS vesicles, Ca2+); fluorogenic FXa substrate (Factor X, P00742)
B1 | 22% | 1.2 s⁻¹ | 1e+07 M⁻¹ s⁻¹ | – | – | – | –
B2 | 125% | 5.3 s⁻¹ | 5.8e+07 M⁻¹ s⁻¹ | – | – | – | –
B3 | – | – | – | 274% | 1.3e+08 M⁻¹ s⁻¹ | – | –
B4 | 794% | 9.2 s⁻¹ | 3.7e+08 M⁻¹ s⁻¹ | – | – | – | –
B5 | 229% | 5 s⁻¹ | 1.1e+08 M⁻¹ s⁻¹ | – | – | – | –
B6 | 422% | 4.8 s⁻¹ | 1.9e+08 M⁻¹ s⁻¹ | – | – | – | –
B7 | 538% | – | 2.5e+08 M⁻¹ s⁻¹ | – | – | 0.0344 µM | –
B8 | – | – | – | – | – | – | 0.05 µM
B9 | 571% | – | 2.6e+08 M⁻¹ s⁻¹ | – | – | 0.0236 µM | –
B10 | 357% | 6.7 s⁻¹ | 1.6e+08 M⁻¹ s⁻¹ | – | – | – | –
B11 | – | – | – | 318% | 1.5e+08 M⁻¹ s⁻¹ | – | –
B12 | – | – | – | 406% | 1.9e+08 M⁻¹ s⁻¹ | – | –
B13 | 173% | – | 8e+07 M⁻¹ s⁻¹ | – | – | 0.0675 µM | –
B14 | 21% | – | 9.8e+06 M⁻¹ s⁻¹ | – | – | 0.0612 µM | –
B15 | – | – | – | 320% | 1.5e+08 M⁻¹ s⁻¹ | – | –
B16 | 145% | – | 6.7e+07 M⁻¹ s⁻¹ | – | – | 0.0474 µM | –
B17 | 190% | – | 8.8e+07 M⁻¹ s⁻¹ | – | – | 0.0611 µM | –
B18 | 563% | 8.2 s⁻¹ | 2.6e+08 M⁻¹ s⁻¹ | – | – | – | –

Protein | % of WT kcat/KM (Factor X, P00742) | kcat (Factor X, P00742) | kcat/KM (Factor X, P00742) | % of WT kcat/KM (Factor X (FX), P00742) | kcat/KM (Factor X (FX), P00742) | KM (FX activation by FIXa in Xase complex with FVIIIa, PC/PS vesicles, Ca2+) (Factor X, P00742) | KM of FX activation by FIXa in the Xase complex (FVIIIa, PC/PS vesicles, Ca2+); fluorogenic FXa substrate (Factor X, P00742)
B19 | 650% | 9.8 s⁻¹ | 3e+08 M⁻¹ s⁻¹ | – | – | – | –
B20 | 642% | – | 3e+08 M⁻¹ s⁻¹ | – | – | 0.0235 µM | –
B21 | – | – | – | 292% | 1.3e+08 M⁻¹ s⁻¹ | – | –
B22 | 135% | – | 6.2e+07 M⁻¹ s⁻¹ | – | – | 0.1 µM | –
B23 | 42% | – | 1.9e+07 M⁻¹ s⁻¹ | – | – | 0.0965 µM | –
B24 | – | – | – | 382% | 1.8e+08 M⁻¹ s⁻¹ | – | –
B25 | – | – | – | – | – | – | 0.0654 µM
B26 | 124% | – | 5.7e+07 M⁻¹ s⁻¹ | – | – | 0.0954 µM | –
B27 | 152% | – | 7e+07 M⁻¹ s⁻¹ | – | – | 0.0839 µM | –
B28 | 342% | – | 1.6e+08 M⁻¹ s⁻¹ | – | – | 0.0483 µM | –
B29 | 263% | – | 1.2e+08 M⁻¹ s⁻¹ | – | – | 0.0454 µM | –
B30 | 907% | – | 4.2e+08 M⁻¹ s⁻¹ | – | – | 0.0247 µM | –
B31 | 18% | – | 8.2e+06 M⁻¹ s⁻¹ | – | – | 0.0685 µM | –
B32 | 114% | – | 5.3e+07 M⁻¹ s⁻¹ | – | – | 0.0724 µM | –
B33 | – | – | – | 366% | 1.7e+08 M⁻¹ s⁻¹ | – | –
B34 | 571% | 8.8 s⁻¹ | 2.6e+08 M⁻¹ s⁻¹ | – | – | – | –
B35 | 58% | 2.9 s⁻¹ | 2.7e+07 M⁻¹ s⁻¹ | – | – | – | –
B36 | – | – | – | 85% | 3.9e+07 M⁻¹ s⁻¹ | – | –
